# System: engineered chimeric receptor SEQ ID NO: 33 and its mutants (human α7-nAChR ligand binding domain / human GlyRα1 ion pore domain) in Lenti-X 293T cells
# Test: YFP fluorescence quenching anion reporter plate reader assay (percent quench, EC50)
# Format: cell-based
# Settings: for YFP fluorescence quenching using CNL001 (percent quench): receptor named in row; for YFP fluorescence quenching using Varenicline, 3 nM var: ligand Varenicline 3 nM; for YFP fluorescence quenching using Varenicline, 30 nM var: ligand Varenicline 30 nM; for YFP fluorescence quenching using Varenicline, 300 nM var: ligand Varenicline 300 nM; for YFP fluorescence quenching using Varenicline, 500 nM var: ligand Varenicline 500 nM; for YFP fluorescence quenching using Varenicline, 1 uM var: ligand Varenicline 1 uM
# How it was run: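 Lenti-X 293T cells co-expressing an anion-quenchable YFP were transiently transfected with receptor DNA, then ligand was added in NaI-substituted buffer (pH 7.2) after 30 min at 37 °C. Fluorescence was read about 2 min; percent quench = mean of last 10 s over 15 s pre-ligand baseline.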
molecule,measurement,setting,value
"CODA335: engineered receptor: L131T in SEQ ID NO: 33 (protein, synthetic sequence of chimeric LGIC) MRCSPGGVWLALAASLLHVSLQGEFQRKLYKELVKNYNPLERPVANDSQPLTVYFSLSLLQIMDVDEKNQVLTTNIWLQMSWTDHYLQWNVSEYPGVKTVRFPDGQIWKPDILLYNSADERFDATFHTNVTVNSSGHCQYLPPGIFKSSCPMDLKNFPMDVQTCKLKFGSWSYGGWSLDLQMQEADISGYIPNGEWDLVGIPGKRSERFYECCKEPYPDVTFTVTMRRRMGYYLIQMYIPSLLIVILSWISFWINMDAAPARVGLGITTVLTMTTQSSGSRASLPKVSYVKAIDIWMAVCLLFVFSALLEYAAVNFVSRQHKELLRFRRKRRHHKSPMLNLFQEDEAGEGRFNFSAYGMGPACLQAKDGISVKGANNSNTTNPPPAPSKSPEEMRKLFIQRAKKIDKISRIGFPMAFLIFNMFYWIIYKIVRREDVHNQ",YFP fluorescence quenching using CNL001 (percent quench),"1 nM CNL001, first column so headed",−9.942%
same,YFP fluorescence quenching using CNL001 (percent quench),"1 nM CNL001, second column so headed",−0.475%
same,YFP fluorescence quenching using TC-5619/Bradanicline (percent quench),1 nM brd (TC-5619/Bradanicline),−2.39%
same,YFP fluorescence quenching using TC-5619/Bradanicline (percent quench),3 nM brd (TC-5619/Bradanicline),−4.08%
same,YFP fluorescence quenching using CNL001 (percent quench),"10 nM CNL001, first column so headed",17.889%
same,YFP fluorescence quenching using CNL001 (percent quench),"10 nM CNL001, second column so headed",38.46%
same,YFP fluorescence quenching using TC-5619/Bradanicline (percent quench),10 nM brd (TC-5619/Bradanicline),−3.3%
same,YFP fluorescence quenching using TC-6683 (percent quench),30 nM TC-6683,−13.84%
same,YFP fluorescence quenching using TC-5619/Bradanicline (percent quench),30 nM brd (TC-5619/Bradanicline),−9.69%
same,YFP fluorescence quenching using CNL001 (percent quench),"50 nM CNL001, first column so headed",61.741%
same,YFP fluorescence quenching using CNL001 (percent quench),"50 nM CNL001, second column so headed",69.159%
same,YFP fluorescence quenching using ABT-126 (percent quench),50 nM abt (ABT-126),−18%
same,YFP fluorescence quenching using CNL001 (percent quench),"100 nM CNL001, first column so headed",73.635%
same,YFP fluorescence quenching using CNL001 (percent quench),"100 nM CNL001, second column so headed",76.092%
same,YFP fluorescence quenching (percent quench),100 nM CNL002,−14.53%
same,YFP fluorescence quenching using ABT-126 (percent quench),100 nM abt (ABT-126),−16.39%
same,YFP fluorescence quenching using AZD-0328 (percent quench),100 nM azd0328,11.33%
same,YFP fluorescence quenching using TC-5619/Bradanicline (percent quench),100 nM brd (TC-5619/Bradanicline),−1.05%
same,YFP fluorescence quenching using TC-6683 (percent quench),300 nM TC-6683,−20.66%
same,YFP fluorescence quenching using ABT-126 (percent quench),300 nM abt (ABT-126),−15.05%
same,YFP fluorescence quenching using AZD-0328 (percent quench),300 nM azd0328,44.15%
same,YFP fluorescence quenching using TC-5619/Bradanicline (percent quench),300 nM brd (TC-5619/Bradanicline),10.53%
same,YFP fluorescence quenching using CNL001 (percent quench),"1 uM CNL001, first column so headed",80.633%
same,YFP fluorescence quenching using CNL001 (percent quench),"1 uM CNL001, second column so headed",79.637%
same,YFP fluorescence quenching (percent quench),1 uM CNL002,6.45%
same,YFP fluorescence quenching using ABT-126 (percent quench),1 uM abt (ABT-126),−5.56%
same,YFP fluorescence quenching using TC-5619/Bradanicline (percent quench),1 uM brd (TC-5619/Bradanicline),34.72%
same,YFP fluorescence quenching using TC-6683 (percent quench),3 uM TC-6683,−17.86%
same,YFP fluorescence quenching (percent quench),10 uM ach (acetylcholine),−9.13%
same,YFP fluorescence quenching (percent quench),30 uM CNL002,57.43%
same,YFP fluorescence quenching using TC-6683 (percent quench),30 uM TC-6683,−18.91%
same,YFP fluorescence quenching using AZD-0328 (percent quench),30 uM azd0328,80.96%
same,YFP fluorescence quenching using TC-6683 (percent quench),100 uM TC-6683,−16.88%
same,YFP fluorescence quenching (percent quench),100 uM ach (acetylcholine),−9.29%
same,YFP fluorescence quenching (percent quench),1 mM ach (acetylcholine),0.57%
same,YFP fluorescence quenching (percent quench),3 mM ach (acetylcholine),35.37%
same,"YFP fluorescence quenching using Facinicline, 30 nM fac",ligand Facinicline 30 nM,1.24
same,"YFP fluorescence quenching using Facinicline, 300 nM fac",ligand Facinicline 300 nM,46.92
same,"YFP fluorescence quenching using Facinicline, 10 uM fac",ligand Facinicline 10 uM,79.06
same,"YFP fluorescence quenching using Facinicline, 30 uM fac",ligand Facinicline 30 uM,81.06
same,"YFP fluorescence quenching using TC-6987, 1 uM tc6987",ligand TC-6987 1 uM,−0.14
same,"YFP fluorescence quenching using TC-6987, 3 uM tc6987",ligand TC-6987 3 uM,−8.32
same,"YFP fluorescence quenching using TC-6987, 5 uM tc6987",ligand TC-6987 5 uM,−2.13
same,"YFP fluorescence quenching using TC-6987, 10 uM tc6987",ligand TC-6987 10 uM,0.13
same,"YFP fluorescence quenching using TC-6987, 30 uM tc6987",ligand TC-6987 30 uM,−6.86
same,"YFP fluorescence quenching using TC-6987, 50 uM tc6987",ligand TC-6987 50 uM,−9.5
same,"YFP fluorescence quenching using TC-6987, 100 uM tc6987",ligand TC-6987 100 uM,−10.98
same,"YFP fluorescence quenching using TC-6987, 300 uM tc6987",ligand TC-6987 300 uM,−12.16
same,"YFP fluorescence quenching using TC-6987, 500 uM tc6987",ligand TC-6987 500 uM,−2.41
same,"YFP fluorescence quenching using Varenicline, 3 nM var",first column,0.398
same,"YFP fluorescence quenching using Varenicline, 3 nM var",second column,3.947
same,"YFP fluorescence quenching using Varenicline, 30 nM var",first column,5.31
same,"YFP fluorescence quenching using Varenicline, 30 nM var",second column,7.666
same,"YFP fluorescence quenching using Varenicline, 300 nM var",first column,4.327
same,"YFP fluorescence quenching using Varenicline, 300 nM var",second column,3.275
same,"YFP fluorescence quenching using Varenicline, 500 nM var",first column,1.835
same,"YFP fluorescence quenching using Varenicline, 500 nM var",second column,4.863
same,"YFP fluorescence quenching using Varenicline, 1 uM var",first column,9.471
same,"YFP fluorescence quenching using Varenicline, 1 uM var",second column,7.505
